Entries after “also recorded” stand apart in the source; their conditions may differ. Where two headings read alike, the source gives them in different places.
Experiments:
[1] = tested on: S. epidermidis N15; assay: Broth microdilution MIC/MBC; assay type: cell-based, Staphylococcus epidermidis; conditions: Table 1, peptide alone, 20 h; no unit in table, μM
From the text: (§1) Staphylococcus aureus CCUG 35601 (MRSA, Culture Collection, University of Gothenburg) and Staphylococcus aureus ATCC 29213 (MSSA, ATCC, Manassas, VA). Staphylococcus epidermidis ATCC 12228 (ATCC, Manassas, VA), RP62A, N15 and 10 clinical isolates of Staphylococcus epidermidis that have previously been characterized. Isolated Escherichia coli, Enterococcus faecium (including VRE), Pseudomonas aeruginosa, Klebsiella pneumoniae, Enterobacter spp and Acinetobacter baumannii were obtained from Orebro University hospital. Isolated Streptococcus mutans, Streptococcus constellatus and Streptococcus anginosus were obtained from Malmo University. The bacteria were grown on Luria-Bertani (LB) agar plates, supplemented with 5% defibrinated horse blood, and incubated at 37° C. overnight. Single colonies were inoculated into 5 ml of LB broth and incubated on a shaker (300 rpm) at 37° C. overnight. The bacterial concentration was determined by viable count and adjusted to correlate with approximately 10^9 CFU/ml.
(§2) The broth microdilution method was used to determine minimal inhibitory concentration (MIC) and minimal bactericidal concentration (MBC). Two-fold serial dilutions of the peptides were used and the final concentrations ranged from 0.097-50 μM. […] The effect of bacteriocin-antibiotic combinations was accomplished by using the same concentration series of antibiotics with a constant concentration of PLNC8 αβ (3.1 μM) in all the wells. […] All experiments were repeated at least three times.

[2] = tested on: S. epidermidis 154; assay: Broth microdilution MIC/MBC; assay type: cell-based, Staphylococcus epidermidis; conditions: Table 3, peptide alone
From the text: as §1, §2

[3] = tested on: S. epidermidis 157 (hGISE strain); assay: Broth microdilution MIC/MBC; assay type: cell-based, Staphylococcus epidermidis; conditions: Table 3, peptide alone
From the text: as §1, §2

[4] = tested on: S. epidermidis 126 (hGISE strain); assay: Broth microdilution MIC/MBC; assay type: cell-based, Staphylococcus epidermidis; conditions: Table 3, peptide alone
From the text: as §1, §2

[5] = tested on: S. epidermidis RP62A; assay: Broth microdilution MIC/MBC; assay type: cell-based, Staphylococcus epidermidis; conditions: Table 1, peptide alone, 20 h; no unit in table, μM
From the text: as §1, §2

[6] = tested on: S. epidermidis ATCC 12228; assay: Broth microdilution MIC/MBC; assay type: cell-based, Staphylococcus epidermidis
From the text: as §1, §2

[7] = tested on: S. epidermidis 117; assay: Broth microdilution MIC/MBC; assay type: cell-based, Staphylococcus epidermidis; conditions: Table 1, peptide alone, 20 h; no unit in table, μM
From the text: as §1, §2

[8] = tested on: S. epidermidis; assay: Broth microdilution MIC/MBC, strain not named; assay type: cell-based, Staphylococcus epidermidis
From the text: as §1, §2

[9] = tested on: S. aureus (MSSA and MRSA); assay: Sytox Green lysis and time-kill assay; assay type: cell-based, Staphylococcus aureus
Description: (§3) The fluorescent dye Sytox® Green, which can only cross damaged membranes and fluoresce upon binding to nucleic acids, was used to study the antimicrobial activity of PLNC8 αβ on S. epidermidis, S. aureus (MSSA, MRSA) and Streptococcus spp. The bacteria were washed and resuspended in Krebs-Ringer Glucose buffer (KRG) (120 mM NaCl, 4.9 mM KCl, 1.2 mM MgSO4, 1.7 mM KH2PO4, 8.3 mM Na2HPO4, and 10 mM glucose, pH 7.3) and incubated in the presence or absence of different combinations of PLNC8 αβ in 96-well microtiter plates for 2 min. Images were captured with Olympus BX41 at 40× magnification.

[10] = tested on: Porphyromonas gingivalis; conditions: references 1, 2; cited from earlier work
[11] = tested on: Escherichia coli; assay: Broth microdilution MIC/MBC; assay type: cell-based; conditions: for MBC / MIC: peptide alone
From the text: as §1, §2

[12] = tested on: Pseudomonas aeruginosa; assay: Broth microdilution MIC/MBC; assay type: cell-based; conditions: for MBC / MIC: P. aeruginosa, peptide alone
From the text: as §1, §2

[13] = tested on: Enterococcus faecium; assay: Broth microdilution MIC/MBC; assay type: cell-based; conditions: for MBC / MIC: peptide alone
From the text: as §1, §2

[14] = tested on: S. epidermidis ATCC 12228; assay: Sytox Green uptake (membrane permeabilization); assay type: cell-based, Staphylococcus epidermidis; conditions: 5 μM
Description: as §3

[15] = tested on: S. epidermidis RP62A biofilms; assay: Bacterial biofilm disruption; assay type: cell-based, Staphylococcus epidermidis; conditions: 1 h
Description: S. epidermidis RP62A was inoculated into 5 ml of LB broth and incubated on a shaker at 37° C. overnight. The bacterial culture was diluted 1:100 into fresh media and 100 μl of bacterial suspension per well was added in a 96-well microtiter plate and incubated statically at 37° C. for 20 h. The wells were washed three times by submerging the plate into a container with distilled water to remove unattached cells. Fresh LB media was added to each well (100 μl) followed by addition of the peptides in different concentrations. The plate was incubated statically for 1 h. Detached material in the wells were transferred to a new microtiter plate for absorbance measurements at 620 nm. The remaining attached biofilms were stained with 0.1% crystal violet for 15 min before the plate was washed four times in distilled water as mentioned above and allowed to dry at room temperature for 2 h. The crystal violet was solubilized in 30% acetic acid for 15 min and the absorbance quantified at 550 nm. Each experiment, with three replicates, was repeated three times.

[16] = tested on: wounds infected with S. aureus; assay: Porcine wound model; assay type: in vivo, pig; conditions: PLNC8αβ 50 μM, every other day, 7 days
From the text: Three wounds were created per condition with the following conditions: control (PBS), […]/gentamicin and […]8 αβ. […] The pig was returned to the pen and monitored during recovery from anesthesia. […] This procedure was repeated every other day for seven days (a total of four doses of treatment of the infected wounds).

[17] = Table 1, peptide alone, 20 h, no unit in table, μM
[18] = ESBL-producing E. coli, first isolate
[19] = ESBL-producing E. coli, second isolate
[20] = Non-ESBL E. coli, first isolate
[21] = Non-ESBL E. coli, second isolate
[22] = Vancomycin resistant E. faecium (VRE)

B1: PLNC8 αβ: two-peptide class IIb bacteriocin of L. plantarum NC8: PLNC8 α (SEQ ID NO 1) with PLNC8 β (SEQ ID NO 2) (peptide)
alpha: DLTTKLWSSWGYYLGKKARWNLKHPYVQF
beta: SVPTSVYTLGIKILWSAYKHRKTIEKSFNKGFYH
modifications: Lactobacillus plantarum NC8
Molecule B1 has an MBC [1] of 6.25 µM, an MIC [1] of 6.25 µM and an MBC [2] of 12.5 µM. It also gave an MIC [2] of 6.25 µM, an MBC [3] of over 50 µM and an MIC [3] of 12.5 µM. It also gave an MBC [4] of 50 µM, an MIC [4] of 12.5 µM and an MBC [5] of 6.25 µM. For the same molecule, the MIC [5] was 6.25 µM, the “molar ratio PLNC8 α to PLNC8 β for inhibiting and killing” value ([6]; 20 h) was “molar ratio of 1:1 is most efficient at inhibiting and killing S. epidermidis; also recorded: ratios between 1:1 and 1:7 were also found to be effective” and the “molar ratio PLNC8 α to PLNC8 β for inhibiting and killing” value ([6]; 20 h, listed as PLNC8αβ) was “molar ratio of 1:1 is most efficient at inhibiting and killing S. epidermidis”. It also gave an MBC [6, 17] of 12.5 µM, an MIC [6, 17] of 6.25 µM and an MBC ([6]; Table 2, peptide alone) of 12.5 µM. The MIC ([6]; Table 2, peptide alone) was 6.25 µM, the MBC [7] was 12.5 µM and the MIC [7] was 12.5 µM. For the same molecule, the “decrease of MIC and MBC of gentamicin by the peptides” value ([8]; S. epidermidis, FIG. 15) was 15-30 fold, the “decrease of MIC and MBC of rifampicin by the peptides” value ([8]; S. epidermidis, FIG. 15) was 100 fold and the “decrease of MIC and MBC of vancomycin by the peptides” value ([8]; S. epidermidis, FIG. 15) was 2 fold. The “inhibition of S. epidermidis isolated from PJIs” value ([8]; incl. hGISE, FIG. 14) was “effectively inhibits different strains of S. epidermidis isolated from PJIs, including S. epidermidis (hGISE)”, the “lysis and killing of S. aureus” value [9] was “dose-dependently and rapidly lysed and killed S. aureus” and the “activity against Porphyromonas gingivalis” value [10] was “efficient against the periodontal pathogen Porphyromonas gingivalis”. For the same molecule, the “effect of peptide alone on Escherichia coli” value [11] was “permeabilized and killed”, the “effect of sub-MIC peptide on antibiotics” value [11] was “significantly enhanced the effects of different antibiotics” and the MBC [11, 18] was over 50 µM. It also gave an MIC [11, 18] of over 50 µM, an MBC [11, 19] of over 50 µM and an MIC [11, 19] of over 50 µM. The MBC [11, 20] was over 50 µM, the MIC [11, 20] was over 50 µM and the MBC [11, 21] was over 50 µM. The MIC [11, 21] was over 50 µM, the “effect of peptide alone on Escherichia coli” value ([11]; listed as PLNC8αβ) was “did not affect the growth; also recorded: does not affect the growth” and the “effect of peptide alone on Pseudomonas aeruginosa” value [12] was “permeabilized and killed”. For the same molecule, the “effect of sub-MIC peptide on antibiotics” value [12] was “enhanced the effects of different antibiotics”, the MBC ([12]; first isolate) was over 50 µM and the MIC ([12]; first isolate) was over 50 µM. For the same molecule, the MBC ([12]; second isolate) was over 50 µM, the MIC ([12]; second isolate) was over 50 µM and the “effect of peptide alone on Pseudomonas aeruginosa” value ([12]; listed as PLNC8αβ) was “did not affect the growth; also recorded: does not affect the growth”. For the same molecule, the “effect of peptide alone on Enterococcus faecium” value [13] was “permeabilized and killed”, the “effect of sub-MIC peptide on antibiotics” value [13] was “significantly enhanced the effects of different antibiotics” and the MBC ([13]; E. faecium, first isolate) was 6.25 µM. It also gave an MIC ([13]; E. faecium, first isolate) of 6.25 µM, an MBC ([13]; E. faecium, second isolate) of 6.25 µM and an MIC ([13]; E. faecium, second isolate) of 3.1 µM. The MBC [13, 22] was 25 µM, the MIC [13, 22] was 3.1 µM and the “effect of peptide alone on Enterococcus faecium” value ([13]; listed as PLNC8αβ) was “both inhibitory and bactericidal”. For the same molecule, the “perturbation of the plasma membrane of S. epidermidis” value [14] was “equally rapid (2 min)”, the disruption of biofilms [15] was “efficiently disrupted the biofilms and killed the bacteria” and the “infection and wound healing in vivo” value [16] was “inhibited infection and promoted wound healing in vivo”.

From patent US12064464B2, “Plantaricin NC8 alpha beta markedly enhances the effects of antibiotics” (priority 2018, dated 2024)
